Our source for the EC50 values is patent US20240018237A1 (SICHUAN KELUN BIOTECH BIOPHARMACEUTICAL, published 2024).

What is called EC50 is the concentration giving half of the maximal effect. Higher therefore signals weaker potency.

Residue numbers refer to the chain shown, from its start.

B1: 19F6-Hu35V5 (antibody, human IgG1, kappa, V domains shown)
VH: QVQLQESGPGLVKPSQTLSLTCTVSGYSITSDYAWNWIRQFPGKGLEWIGYISYSGSIRYNPSLKSRVTISRDTSKNQFSLKLSSVTAADTAVYYCARGEITYYFDYWGQGTLVTVSS
VL: ETTLTQSPAFMSATPGDKVTISCKASTDIDDDMNWYQQKPGKPPKLIISEGNTLRPGIPPRFSSSGYGTDFTFTINNIKSEDAATYYCLQSNDLPLTFGQGTKLEIKR
notes: humanized, human IgG1 / kappa
B2: 19F6-Hu22 (antibody, human IgG1, kappa, V domains shown)
VH: B1 VH with Q16E, F41P, I49M, S66D, V68I
VL: DIQMTQSPSSLSASVGDRVTITCITTTDIDDDMNWYQQKPGKAPKLLISEGNTLQSGVPSRFSGSGYGTDFTLTISSLQPEDFATYYCLQSNDLPLTFGQGTKLEIKR
notes: humanized, human IgG1 / kappa
B3: 19F6-Hu34 (antibody, human IgG1, kappa, V domains shown)
VH: B1 VH
VL: DIQMTQSPSSLSASVGDRVTITCQTSTDIDDDLNWYQQKPGKPPKLLISEGNTLETGVPSRFSGSGSGTDFTFTISSLQPEDIADYYCLQSNDLPLTFGAGTKLEIKR
notes: humanized, human IgG1 / kappa
B4: 19F6-Hu35V10 (antibody, human IgG1, kappa, V domains shown)
VH: B1 VH
VL: B1 VL with D31S, N76R, N77K, K79E, T85D
notes: humanized, human IgG1 / kappa
B5: 19F6-Hu25 (antibody, human IgG1, kappa, V domains shown)
VH: B1 VH with Q16E, F41P, I49M, S66D, V68I
VL: B1 VL with K42E, K79E, T85D
notes: humanized, human IgG1 / kappa
B6: 19F6-Hu35V4 (antibody, human IgG1, kappa, V domains shown)
VH: B1 VH
VL: B1 VL with D28S, D31N, N77K, K79E
notes: humanized, human IgG1 / kappa
B7: 19F6-Hu11 (antibody, human IgG1, kappa, V domains shown)
VH: B1 VH with Q16E, S25T, F41P, I49M, N61K, S66D, V68I
VL: B2 VL with Q55R, S56P
notes: humanized, human IgG1 / kappa
B8: 19F6-Hu15 (antibody, human IgG1, kappa, V domains shown)
VH: B1 VH with Q16E, S25T, F41P, I49M, N61K, S66D, V68I
VL: B1 VL with K42E, K79E, T85D
notes: humanized, human IgG1 / kappa
B9: 19F6-Hu35V7 (antibody, human IgG1, kappa, V domains shown)
VH: B1 VH
VL: B1 VL with D28S, K79Q
notes: humanized, human IgG1 / kappa
B10: 19F6-Hu35 (antibody, human IgG1, kappa, V domains shown)
VH: B1 VH
VL: B1 VL with K42E, K79E, T85D
notes: humanized, human IgG1 / kappa
B11: 19F6-Hu35V9 (antibody, human IgG1, kappa, V domains shown)
VH: B1 VH
VL: B1 VL with D28S, N76R, N77K, K79E, T85D
notes: humanized, human IgG1 / kappa
B12: 19F6-Hu35V8 (antibody, human IgG1, kappa, V domains shown)
VH: B1 VH
VL: B1 VL with D31N, K79Q
notes: humanized, human IgG1 / kappa
B13: 19F6-Hu35V2 (antibody, human IgG1, kappa, V domains shown)
VH: B1 VH
VL: B1 VL with D31S, K42E, N77K
notes: humanized, human IgG1 / kappa
B14: 19F6-Hu35V6 (antibody, human IgG1, kappa, V domains shown)
VH: B1 VH
VL: B1 VL with D31N
notes: humanized, human IgG1 / kappa
B15: 19F6-Hu35V3 (antibody, human IgG1, kappa, V domains shown)
VH: B1 VH
VL: B1 VL with D28S, N77K, K79E
notes: humanized, human IgG1 / kappa
B16: 38F8-Hu34 (antibody, human IgG1, kappa, V domains shown)
VH: QVQLVESGGGLVKPGGSLRLSCAASGFTFSNYAMSWVRQAPGKGLEWVASISSGGPTYYADSVKGRFTISRDNAKNSLYLQMNSLRAEDTAVYYCARGYRYDVNWYFDVWGAGTMVTVSS
VL: DIQMTQSPSSLSASVGDRVTITCQASQDISNYLTWFQQKPGKSPKTLIHRANRLVTGVPSRFSGSGSGTDFTFTISSLQPEDIATYYCLQYDEFPYTFGGGTKVEIKR
notes: humanized, human IgG1 / kappa
B17: 38F8-Hu54 (antibody, human IgG1, kappa, V domains shown)
VH: B16 VH with Q1E, K13Q, G42E, G44R, A60P, I69V, A74S, S77T
VL: B16 VL
notes: humanized, human IgG1 / kappa
B18: 38F8-Hu38 (antibody, human IgG1, kappa, V domains shown)
VH: B16 VH
VL: B16 VL with S30N, N31S, F71Y, T85I
notes: humanized, human IgG1 / kappa
B19: 38F8-Hu68 (antibody, human IgG1, kappa, V domains shown)
VH: B16 VH with G42E, G44R, A60P
VL: B16 VL with S30N, N31S, F71Y, T85I
notes: humanized, human IgG1 / kappa
B20: 38F8-Hu58 (antibody, human IgG1, kappa, V domains shown)
VH: B16 VH with Q1E, K13Q, G42E, G44R, A60P, I69V, A74S, S77T
VL: B16 VL with S30N, N31S, F71Y, T85I
notes: humanized, human IgG1 / kappa
B21: 38F8-Hu56 (antibody, human IgG1, kappa, V domains shown)
VH: B16 VH with Q1E, K13Q, G42E, G44R, A60P, I69V, A74S, S77T
VL: B16 VL with S30N, N31S
notes: humanized, human IgG1 / kappa
B22: 38F8-Hu36 (antibody, human IgG1, kappa, V domains shown)
VH: B16 VH
VL: B16 VL with S30N, N31S
notes: humanized, human IgG1 / kappa
B23: 38F8-Hu37 (antibody, human IgG1, kappa, V domains shown)
VH: B16 VH
VL: B16 VL with F71Y, T85I
notes: humanized, human IgG1 / kappa
B24: 38F8-Hu64 (antibody, human IgG1, kappa, V domains shown)
VH: B16 VH with G42E, G44R, A60P
VL: B16 VL
notes: humanized, human IgG1 / kappa
B25: 38F8-Hu67 (antibody, human IgG1, kappa, V domains shown)
VH: B16 VH with G42E, G44R, A60P
VL: B16 VL with F71Y, T85I
notes: humanized, human IgG1 / kappa
B26: 38F8-Hu66 (antibody, human IgG1, kappa, V domains shown)
VH: B16 VH with G42E, G44R, A60P
VL: B16 VL with S30N, N31S
notes: humanized, human IgG1 / kappa

T1 sequence (Q01973 30-937): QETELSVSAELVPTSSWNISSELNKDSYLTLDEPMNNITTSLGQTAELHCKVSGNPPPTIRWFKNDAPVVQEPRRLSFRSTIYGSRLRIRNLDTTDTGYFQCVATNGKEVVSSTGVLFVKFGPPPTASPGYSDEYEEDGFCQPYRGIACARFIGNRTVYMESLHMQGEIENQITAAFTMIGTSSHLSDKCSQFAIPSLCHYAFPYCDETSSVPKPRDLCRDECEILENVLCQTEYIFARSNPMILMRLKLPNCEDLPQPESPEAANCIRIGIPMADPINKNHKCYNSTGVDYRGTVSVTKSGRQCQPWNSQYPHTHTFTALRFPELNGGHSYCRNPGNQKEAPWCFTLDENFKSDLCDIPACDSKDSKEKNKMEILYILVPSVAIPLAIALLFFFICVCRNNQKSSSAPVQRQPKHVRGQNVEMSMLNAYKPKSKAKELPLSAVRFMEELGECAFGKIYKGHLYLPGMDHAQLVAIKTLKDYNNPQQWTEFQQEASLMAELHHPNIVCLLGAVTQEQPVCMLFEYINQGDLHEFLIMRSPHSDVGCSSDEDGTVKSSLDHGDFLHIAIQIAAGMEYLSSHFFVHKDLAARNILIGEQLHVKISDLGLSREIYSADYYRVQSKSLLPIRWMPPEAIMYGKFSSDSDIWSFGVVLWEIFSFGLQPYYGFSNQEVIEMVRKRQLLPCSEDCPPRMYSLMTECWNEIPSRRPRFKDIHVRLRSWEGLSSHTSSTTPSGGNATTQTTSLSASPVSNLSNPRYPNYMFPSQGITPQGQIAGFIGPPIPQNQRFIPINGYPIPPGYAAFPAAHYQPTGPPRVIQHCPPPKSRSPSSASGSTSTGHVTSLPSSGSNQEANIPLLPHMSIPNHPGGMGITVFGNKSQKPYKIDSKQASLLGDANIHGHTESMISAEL

One test addresses T1, human ROR1 (full-length, on the cell surface) (human, UniProt Q01973 30-937).
T1 construct: whole, on cells; the tumour cell lines carry their own ROR1; also called Ba/F3-ROR1 cells; Jeko-1
Nature of the test: flow cytometry, Jeko-1 cells. The procedure:
(§1) The affinities of the anti-human ROR1 humanized antibodies to Ba/F3-ROR1, Jeko-1, HT-29 and A549 cells were detected by flow cytometry. The specific experimental steps were as follows: the BaBF3-ROR1, Jeko-1, HT-29 and A549 cells were incubated with the purified humanized antibodies of different concentration gradients on ice for 30 minutes, and the anti-ROR1 antibody UC961 with human IgG1 and the anti-TNP antibody were used as positive and negative controls, respectively.
On the technique in general: A flow cytometer gives signals particle by particle.
On to B1, for which a half-maximal effect (EC50) was put at 0.13 nM.
B2 registered an EC50 of 0.13 nM.
The molecule B3 registered an EC50 of 0.18 nM.
The same measure, in the same setting: then B4, with 0.35 nM; and B5, with 0.19 nM.
In the case of B6, a half-maximal response (EC50) required 0.2 nM.
Still for that read-out and setting: then B7, with 0.15 nM; and B8, with 0.21 nM.
In turn, B9 returned an EC50 of 0.22 nM.
Take B10: the EC50 came out at 0.15 nM.
For the molecule B11, it took 0.28 nM to reach a half-maximal effect (EC50).
On the same count and under the same terms, as for B12, the figure is 0.18 nM; as for B13, 0.19 nM.
B14 gave an EC50 of 0.2 nM. This EC50 and that of the molecule before are within 1.5-fold of each other.
Same read-out and setting: as for B15, the figure is 0.18 nM; as for B16, 0.06 nM; as for B17, 0.09 nM.
As to B18, a half-maximal response (EC50) required 0.13 nM.
Still for that read-out and setting: then B19, with 0.11 nM.
Same read-out and setting: as for B20, the figure is 0.09 nM; as for B21, 0.1 nM; as for B22, 0.09 nM.
Molecule B23 had an EC50 of 0.1 nM. This EC50 and that of the molecule before are within 1.5-fold of each other.
On to B24, for which the EC50 came to 0.09 nM.
On the same count and under the same terms, then B25, with 0.1 nM.
On the same count and under the same terms, then B26, with 0.11 nM.

A further test concerns the target T1, human ROR1 (full-length, on the cell …). As to the kind of experiment: flow cytometry, Ba/F3-ROR1 cells.
B1 had an EC50 of 0.17 nM.
The same measure, in the same setting: as for B2, the figure is 0.3 nM.
B3 came in with an EC50 of 0.53 nM. This EC50 is about 1.8-fold higher than that of the molecule before.
In turn, B4 returned an EC50 of 0.27 nM. This EC50 is about 2-fold lower than that of the molecule before.
Still for that read-out and setting: then B5, with 0.61 nM; and B6, with 0.28 nM.
Same read-out and setting: then B7, with 0.25 nM; and B8, with 0.33 nM; and B9, with 0.19 nM.
Still for that read-out and setting: as for B10, the figure is 0.38 nM.
B11 came in with an EC50 of 0.21 nM.
On the same count and under the same terms, then B12, with 0.18 nM; and B13, with 0.19 nM.
Molecule B14 returned an EC50 of 0.17 nM.
Still for that read-out and setting: then B15, with 0.18 nM.

Another test has the same target. Nature of the test: flow cytometry, Ba/F3-ROR1 cells. This is another data set of the same source. As to the method:
as §1
In turn, B16 had an EC50 of 1.23 nM.
Still for that read-out and setting: then B17, with 1.57 nM; and B18, with 1.43 nM; and B19, with 2.19 nM.
Take B20: the EC50 came to 1.45 nM.
On to B21, for which the EC50 turned out to be 1.09 nM.
B22 had an EC50 of 1.16 nM.
Still for that read-out and setting: as for B23, the figure is 2.35 nM.
Regarding B24, the concentration for a half-maximal effect (EC50) amounted to 1.2 nM.
Molecule B25 gave a 50% effective concentration (EC50) of 0.84 nM. This EC50 and that of the molecule before are within 1.5-fold of each other.
On the same count and under the same terms, then B26, with 0.93 nM.

For the next test the target is unchanged. As to the kind of experiment: flow cytometry, HT-29 cells. As to the method:
as §1
In turn, B1 gave an EC50 of 0.17 nM. This counts as sub-nanomolar.
The same measure, in the same setting: then B2, with 0.16 nM; and B3, with 0.19 nM.
On the same count and under the same terms, then B4, with 0.17 nM.
Same read-out and setting: then B5, with 0.08 nM; and B6, with 0.3 nM; and B7, with 0.08 nM.
In turn, B8 had a 50% effective concentration (EC50) of 0.07 nM.
Regarding B9, a half-maximal response (EC50) required 0.18 nM.
B10 displayed an EC50 of 0.09 nM.
Same read-out and setting: then B11, with 0.17 nM; and B12, with 0.12 nM.
On the same count and under the same terms, as for B13, the figure is 0.18 nM.
The same measure, in the same setting: then B14, with 0.16 nM; and B15, with 0.17 nM.
In turn, B16 had an EC50 of 0.29 nM.
In turn, B17 showed an EC50 of 0.49 nM.
B18 displayed an EC50 of 0.59 nM.
Molecule B19 yielded an EC50 of 0.55 nM.
B20 yielded an EC50 of 0.43 nM.
B21 had an EC50 of 0.42 nM. This EC50 and that of the molecule before are within 1.5-fold of each other.
Still for that read-out and setting: as for B22, the figure is 0.37 nM; as for B23, 0.44 nM; as for B24, 0.42 nM.
The same measure, in the same setting: as for B25, the figure is 0.61 nM; as for B26, 0.44 nM.

For the next test the target is unchanged. As to the kind of experiment: flow cytometry, A549 cells. As to the method:
as §1
With B1, it took 0.16 nM to reach a half-maximal effect (EC50).
Same read-out and setting: as for B2, the figure is 0.25 nM; as for B3, 0.13 nM; as for B4, 0.12 nM.
On the same count and under the same terms, then B5, with 0.13 nM; and B6, with 0.15 nM; and B7, with 0.17 nM.
Still for that read-out and setting: as for B8, the figure is 0.09 nM; as for B9, 0.1 nM.
Regarding B10, the midpoint of the response, the EC50, lay at 0.08 nM.
B11 displayed an EC50 of 0.14 nM.
On to B12, for which the EC50 is 0.09 nM.
Still for that read-out and setting: as for B13, the figure is 0.1 nM.
On the same count and under the same terms, then B14, with 0.08 nM.
Same read-out and setting: as for B15, the figure is 0.1 nM; as for B16, 0.19 nM.
Turning to B17, the EC50 amounted to 0.46 nM. Against the preceding molecule, the EC50 is about 2.4-fold higher.
Take B18: the EC50 worked out at 0.38 nM.
The same measure, in the same setting: then B19, with 0.54 nM; and B20, with 0.32 nM; and B21, with 0.32 nM.
The same measure, in the same setting: then B22, with 0.3 nM; and B23, with 0.31 nM; and B24, with 0.31 nM.
Same read-out and setting: as for B25, the figure is 0.4 nM; as for B26, 0.35 nM.
